Measured values from US20220010003A1.

What was measured:
[1] = biological target: recombinant human periostin (human) (UniProt Q15063); test: ELISA, human periostin coated, biotinylated collagen type I titrated, Avidin-HRP detection
[2] = biological target: recombinant human periostin (human) (UniProt Q15063); test: ELISA, human periostin coated, biotinylated tenascin C titrated, Avidin-HRP detection

Sequence of recombinant human periostin (human) (Q15063 22-836 limits assumed): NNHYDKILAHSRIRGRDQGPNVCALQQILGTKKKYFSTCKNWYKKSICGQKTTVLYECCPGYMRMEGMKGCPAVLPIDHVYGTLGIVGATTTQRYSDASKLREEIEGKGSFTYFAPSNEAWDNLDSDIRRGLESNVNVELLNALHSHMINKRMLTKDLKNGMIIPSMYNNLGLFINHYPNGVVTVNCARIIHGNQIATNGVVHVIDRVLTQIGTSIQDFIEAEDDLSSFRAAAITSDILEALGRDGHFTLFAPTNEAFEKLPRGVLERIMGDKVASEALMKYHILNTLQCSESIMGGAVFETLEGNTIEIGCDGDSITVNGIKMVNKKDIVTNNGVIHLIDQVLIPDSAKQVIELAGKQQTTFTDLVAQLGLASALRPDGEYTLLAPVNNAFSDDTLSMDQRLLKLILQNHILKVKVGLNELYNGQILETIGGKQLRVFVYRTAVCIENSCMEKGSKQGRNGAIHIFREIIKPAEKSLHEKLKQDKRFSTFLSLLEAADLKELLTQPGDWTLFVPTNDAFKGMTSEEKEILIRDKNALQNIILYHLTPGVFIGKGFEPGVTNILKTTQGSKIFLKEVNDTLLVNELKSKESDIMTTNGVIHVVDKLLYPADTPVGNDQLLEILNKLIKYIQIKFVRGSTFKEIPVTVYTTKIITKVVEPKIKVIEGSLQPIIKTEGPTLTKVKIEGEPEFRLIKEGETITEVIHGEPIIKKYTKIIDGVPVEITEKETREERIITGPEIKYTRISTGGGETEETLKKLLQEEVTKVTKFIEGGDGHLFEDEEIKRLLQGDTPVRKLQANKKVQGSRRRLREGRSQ

| EC80 [1] [nM] | EC80 [2] [nM] | Substance |
| --- | --- | --- |
| 100 |  | human collagen type I (from UniProt P02452 162-1218; P08123 80-1119) |
|  | 0.9 | recombinant human tenascin C (from UniProt P24821 23-625) |
